Experimental data from publication doi:10.1101/2020.09.29.318733.

Experiments:
Kohinoor = assay: SEC
Padron = assay: SEC

stoichiometry N (Kohinoor)	stoichiometry N (Padron)	Substance
2		Kohinoor
	4	Padron
